Bridge positions count the residues as written; N and C are the ends. Square brackets hold non-standard residues; d marks the D form. Ends that are not written are not given here. * marks the point of attachment. Acetyl(2-(4-imidazolyl)) = O=C(Cc1c[nH]cn1)*; Aib = CC(C)(N)C(=O)O
target: human GCG receptor (human, UniProt P47871 26-477); experiment: cell-based or functional assay
Sequence (P47871 26-477): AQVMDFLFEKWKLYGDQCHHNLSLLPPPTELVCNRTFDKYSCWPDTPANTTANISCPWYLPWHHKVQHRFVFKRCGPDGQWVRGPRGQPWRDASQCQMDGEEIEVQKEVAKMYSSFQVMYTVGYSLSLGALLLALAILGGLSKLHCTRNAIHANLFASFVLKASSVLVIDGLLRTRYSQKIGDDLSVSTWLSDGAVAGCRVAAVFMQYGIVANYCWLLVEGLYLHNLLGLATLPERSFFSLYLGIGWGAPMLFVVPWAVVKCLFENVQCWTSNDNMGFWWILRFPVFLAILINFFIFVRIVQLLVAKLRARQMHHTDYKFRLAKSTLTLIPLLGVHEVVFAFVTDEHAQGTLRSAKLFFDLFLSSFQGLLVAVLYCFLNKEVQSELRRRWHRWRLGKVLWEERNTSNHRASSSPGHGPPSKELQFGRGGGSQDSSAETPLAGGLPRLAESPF

First: Y[Aib]QGTFTSDYSKALDEKAAKEFVNWLLDQHPSSGQPPPSC (bridge 16-20) [triple agonist of SEQ ID NO: 101]
Second: {Acetyl(2-(4-imidazolyl))}-[Aib]QGTFTSDYSIAMDEIHQKDFVNWLLNTKC (bridge 15-19) [triple agonist of SEQ ID NO: 94]
The “In vitro activity compared to native-type peptide (%), vs Glucagon” value (shortened to “In vitro activity … (%), vs Glucagon”) of the first is higher: 13.9% for the first, < 0.1% for the second.

Compared with [Acetyl(2-(4-imidazolyl))]GEGTFISDYSIQLDEIAVQDFVEWLLAQKPSSGAPPPSHG [triple agonist of SEQ ID NO: 13], Y[Aib]QGTFTSDYSKYLDEKRAKEFVQWLLCHHPSSGQPPPS (bridge 16-20) [triple agonist of SEQ ID NO: 95] is higher in “In vitro activity … (%), vs Glucagon” value: < 0.1% for the first, 0.4% for the second.

Going from Y[Aib]QGTFTSDYSKYLDEKRAKEFVQWLLDCHPSSGQPPPS (bridge 16-20) [triple agonist of SEQ ID NO: 97] to [Acetyl(2-(4-imidazolyl))]GQGTFTSDLSKQMDEERAREFIEWLLAQKPSSGAPPPSHG [triple agonist of SEQ ID NO: 17], the “In vitro activity … (%), vs Glucagon” value falls from 62.8% to < 0.1%.

First: Y[Aib]QGTFTSDYSKALDEKAAKEFVQWLLDQHPSSGQPPPSC (bridge 16-20) [triple agonist of SEQ ID NO: 100]
Second: H[Aib]QGTFTSDVSSYLDGQAQKEFIAWLVKGC [triple agonist of SEQ ID NO: 2]
The “In vitro activity … (%), vs Glucagon” value of the first is higher: 12.7% for the first, < 0.1% for the second.

[Acetyl(2-(4-imidazolyl))]GQGTFTSDYSIQLDEIAVRDFVEWLKNGGPSSGAPPPSHG [triple agonist of SEQ ID NO: 14] and [Acetyl(2-(4-imidazolyl))]GEGTFISDLSKYMDEQAVQLFVEWLMAGGPSSGAPPPSHG [triple agonist of SEQ ID NO: 12] cannot be ordered by “In vitro activity … (%), vs Glucagon” value: < 0.1% for the first, < 0.1% for the second.

First: {Acetyl(2-(4-imidazolyl))}-[Aib]QGTFTSDYSKYLDEKRQKEFVNWLLAQKC (bridge 15-19) [triple agonist of SEQ ID NO: 93]
Second: [Acetyl(2-(4-imidazolyl))]GQGTFTSDLSIQYEEEAQQDFVEWLKDTGPSSGAPPPSHG [triple agonist of SEQ ID NO: 20]
The “In vitro activity … (%), vs Glucagon” value of the first is higher: 0.3% for the first, < 0.1% for the second.

In the case of [Acetyl(2-(4-imidazolyl))]GQGTFTSDLSIQYDSEHQRDFIEWLKDTGPSSGAPPPSHG [triple agonist of SEQ ID NO: 19], the “In vitro activity … (%), vs Glucagon” value is reported as < 0.1%.

target: human GLP-1 receptor (human, UniProt P43220 24-463); experiment: cell-based or functional assay

Going from Y[Aib]QGTFTSDYSKALDEKAAKEFVNWLLDQHPSSGQPPPSC (bridge 16-20) [triple agonist of SEQ ID NO: 101] to {Acetyl(2-(4-imidazolyl))}-[Aib]QGTFTSDYSIAMDEIHQKDFVNWLLNTKC (bridge 15-19) [triple agonist of SEQ ID NO: 94], the “In vitro activity compared to native-type peptide (%), vs GLP-1” value (from here on “In vitro activity … (%), vs GLP-1”) falls from 23.2% to 0.5%.

First: [Acetyl(2-(4-imidazolyl))]GEGTFISDYSIQLDEIAVQDFVEWLLAQKPSSGAPPPSHG [triple agonist of SEQ ID NO: 13]
Second: Y[Aib]QGTFTSDYSKYLDEKRAKEFVQWLLCHHPSSGQPPPS (bridge 16-20) [triple agonist of SEQ ID NO: 95]
The “In vitro activity … (%), vs GLP-1” value of the first is lower: < 0.1% for the first, 2.1% for the second.

Compared with Y[Aib]QGTFTSDYSKYLDEKRAKEFVQWLLDCHPSSGQPPPS (bridge 16-20) [triple agonist of SEQ ID NO: 97], [Acetyl(2-(4-imidazolyl))]GQGTFTSDLSKQMDEERAREFIEWLLAQKPSSGAPPPSHG [triple agonist of SEQ ID NO: 17] is lower in “In vitro activity … (%), vs GLP-1” value: 10.5% for the first, 0.2% for the second.

Compared with Y[Aib]QGTFTSDYSKALDEKAAKEFVQWLLDQHPSSGQPPPSC (bridge 16-20) [triple agonist of SEQ ID NO: 100], H[Aib]QGTFTSDVSSYLDGQAQKEFIAWLVKGC [triple agonist of SEQ ID NO: 2] is lower in “In vitro activity … (%), vs GLP-1” value: 42.2% for the first, 5.9% for the second.

Compared with [Acetyl(2-(4-imidazolyl))]GQGTFTSDYSIQLDEIAVRDFVEWLKNGGPSSGAPPPSHG [triple agonist of SEQ ID NO: 14], [Acetyl(2-(4-imidazolyl))]GEGTFISDLSKYMDEQAVQLFVEWLMAGGPSSGAPPPSHG [triple agonist of SEQ ID NO: 12] is lower in “In vitro activity … (%), vs GLP-1” value: 28% for the first, 0.4% for the second.

Compared with {Acetyl(2-(4-imidazolyl))}-[Aib]QGTFTSDYSKYLDEKRQKEFVNWLLAQKC (bridge 15-19) [triple agonist of SEQ ID NO: 93], [Acetyl(2-(4-imidazolyl))]GQGTFTSDLSIQYEEEAQQDFVEWLKDTGPSSGAPPPSHG [triple agonist of SEQ ID NO: 20] is lower in “In vitro activity … (%), vs GLP-1” value: 5.7% for the first, < 0.1% for the second.

[Acetyl(2-(4-imidazolyl))]GQGTFTSDLSIQYDSEHQRDFIEWLKDTGPSSGAPPPSHG [triple agonist of SEQ ID NO: 19] was tested, and the “In vitro activity … (%), vs GLP-1” value was < 0.1%.

target: T1, human GIP receptor (human, UniProt P48546 22-466); experiment: cell-based or functional assay
T1 sequence (looked up): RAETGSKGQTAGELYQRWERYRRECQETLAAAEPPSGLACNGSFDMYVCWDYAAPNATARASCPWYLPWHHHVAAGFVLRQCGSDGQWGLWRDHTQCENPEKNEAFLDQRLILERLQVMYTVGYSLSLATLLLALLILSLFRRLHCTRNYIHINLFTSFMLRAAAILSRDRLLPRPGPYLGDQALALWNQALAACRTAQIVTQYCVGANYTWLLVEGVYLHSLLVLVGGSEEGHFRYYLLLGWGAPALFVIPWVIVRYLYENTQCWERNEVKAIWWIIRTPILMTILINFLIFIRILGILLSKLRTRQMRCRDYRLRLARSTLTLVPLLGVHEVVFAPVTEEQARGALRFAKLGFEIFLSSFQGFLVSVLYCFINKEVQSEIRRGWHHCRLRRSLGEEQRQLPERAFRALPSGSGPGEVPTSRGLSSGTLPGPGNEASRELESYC

Going from Y[Aib]QGTFTSDYSKALDEKAAKEFVNWLLDQHPSSGQPPPSC (bridge 16-20) [triple agonist of SEQ ID NO: 101] to {Acetyl(2-(4-imidazolyl))}-[Aib]QGTFTSDYSIAMDEIHQKDFVNWLLNTKC (bridge 15-19) [triple agonist of SEQ ID NO: 94], the “In vitro activity compared to native-type peptide (%), vs GIP” value (from here on “In vitro activity … (%), vs GIP”) falls from 40.1% to < 0.1%.

[Acetyl(2-(4-imidazolyl))]GEGTFISDYSIQLDEIAVQDFVEWLLAQKPSSGAPPPSHG [triple agonist of SEQ ID NO: 13] and Y[Aib]QGTFTSDYSKYLDEKRAKEFVQWLLCHHPSSGQPPPS (bridge 16-20) [triple agonist of SEQ ID NO: 95] cannot be ordered by “In vitro activity … (%), vs GIP” value: < 0.1% for the first, < 0.1% for the second.

Going from Y[Aib]QGTFTSDYSKYLDEKRAKEFVQWLLDCHPSSGQPPPS (bridge 16-20) [triple agonist of SEQ ID NO: 97] to [Acetyl(2-(4-imidazolyl))]GQGTFTSDLSKQMDEERAREFIEWLLAQKPSSGAPPPSHG [triple agonist of SEQ ID NO: 17], the “In vitro activity … (%), vs GIP” value falls from 2.6% to < 0.1%.

Going from Y[Aib]QGTFTSDYSKALDEKAAKEFVQWLLDQHPSSGQPPPSC (bridge 16-20) [triple agonist of SEQ ID NO: 100] to H[Aib]QGTFTSDVSSYLDGQAQKEFIAWLVKGC [triple agonist of SEQ ID NO: 2], the “In vitro activity … (%), vs GIP” value falls from 118% to < 0.1%.

[Acetyl(2-(4-imidazolyl))]GQGTFTSDYSIQLDEIAVRDFVEWLKNGGPSSGAPPPSHG [triple agonist of SEQ ID NO: 14] and [Acetyl(2-(4-imidazolyl))]GEGTFISDLSKYMDEQAVQLFVEWLMAGGPSSGAPPPSHG [triple agonist of SEQ ID NO: 12] cannot be ordered by “In vitro activity … (%), vs GIP” value: < 0.1% for the first, < 0.1% for the second.

Compared with {Acetyl(2-(4-imidazolyl))}-[Aib]QGTFTSDYSKYLDEKRQKEFVNWLLAQKC (bridge 15-19) [triple agonist of SEQ ID NO: 93], [Acetyl(2-(4-imidazolyl))]GQGTFTSDLSIQYEEEAQQDFVEWLKDTGPSSGAPPPSHG [triple agonist of SEQ ID NO: 20] is lower in “In vitro activity … (%), vs GIP” value: 0.7% for the first, < 0.1% for the second.

With [Acetyl(2-(4-imidazolyl))]GQGTFTSDLSIQYDSEHQRDFIEWLKDTGPSSGAPPPSHG [triple agonist of SEQ ID NO: 19] the “In vitro activity … (%), vs GIP” value was < 0.1%.

Source: patent US20230381333A1 (HANMI PHARM, published 2023)
